Experimental data as given in patent publication US20230227508A1, “SPLIT INTEIN-BASED SELECTION FOR PEPTIDE BINDERS” (priority 2020, published 2023).

Target: σN-NpuN-Mdm2* bait fusion (residues 17-124 of Mdm2) (UniProt Q00987)
Test: cell-based or functional assay

Sequence of σN-NpuN-Mdm2* bait fusion (residues 17-124 of Mdm2) (Q00987 other isoform, or with tags, fused parts or gaps limits assumed): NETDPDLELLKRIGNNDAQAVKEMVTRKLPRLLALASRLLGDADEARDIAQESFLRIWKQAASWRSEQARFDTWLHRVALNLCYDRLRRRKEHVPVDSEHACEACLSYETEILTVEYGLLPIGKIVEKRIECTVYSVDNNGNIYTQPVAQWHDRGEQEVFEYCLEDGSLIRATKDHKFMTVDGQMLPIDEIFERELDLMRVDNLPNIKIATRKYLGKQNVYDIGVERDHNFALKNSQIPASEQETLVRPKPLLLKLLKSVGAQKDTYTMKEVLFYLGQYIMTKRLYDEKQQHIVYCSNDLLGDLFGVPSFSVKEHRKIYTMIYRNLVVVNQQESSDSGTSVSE

In the case of “PMI-NpuC-σC peptide fusion (PMI, high affinity variant of residues 15-29 of p53)”, the difference in output with against without bait and peptide when σN-NpuN was fully induced and the NpuC-σC fragment uninduced is reported as greater than 200 fold.
